From patent US20170000850A1

Biological target: CD137 ligand (CD137L) (human) (UniProt P41273)
Experiment: cell-based or functional assay

Chain of UniProt P41273 (P41273 whole entry): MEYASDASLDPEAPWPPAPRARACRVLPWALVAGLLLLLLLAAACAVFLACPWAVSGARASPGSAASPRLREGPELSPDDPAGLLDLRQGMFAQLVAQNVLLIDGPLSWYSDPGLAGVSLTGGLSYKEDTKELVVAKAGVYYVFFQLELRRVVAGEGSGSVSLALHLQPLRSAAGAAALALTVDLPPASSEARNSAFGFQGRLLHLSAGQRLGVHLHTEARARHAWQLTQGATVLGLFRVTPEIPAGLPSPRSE

IL-8 production by monocytes co-cultured for 5 days (ELISA): 2 fold
Substance: RBC-CD137-Fc (biotinylated CD137-Fc conjugated through avidin to biotinylated red blood cells) (from UniProt Q07011 24-186) (Fc fusion)
